# Test results taken from patent US20040139485A1 (US Dept. of Health and Human Services, published 2004).
# B1: pRb (retinoblastoma gene product), endogenous in rat liver epithelial cell extracts (other)
# chain: PPKAPRRTAAAEPPPPPPPPPEDDPAQDSDPEELPLIRLEFEKIEEPEFIALCQKLKVPDHVRERAWLTWEKVSSVDGILEGYIQKKKELWGICIFIAAVDLDEMPFTFTELQKSIETSVYKFFDLLKEIDTSTKVDNAVSRLLKKYNVLCALYSKLERTCGLIYLTQPSSGLSTEINSMLVLKVSWITFLLAKGEVVQMEDDLVISFQLMLCVLDYFIKLSPPALLREPYKTAATPINGSPRTPRRGQNRSARIAKQLESDTRTIEVLCKEHECNVDEVKNVYFKNFIPFISSLGIVSSNGLPELESLSKRYEEVYLKSKDLDARLFLDHDKTLQTDTIDSFETERTPRKSNPDEEANMVTPHTPVRTVMNTIQQLMVILNSASDQPSENLISYFSNCTVNPKENILKRVKDVGHIFKEKFASAVGQGCIDIGAQRYKLGVRLYYRVMESMLKSEEERLSIQNFSKLLNDNIFHMSLLACALEVVMATYSRSMLQNLDSGTDLSFPWILNVLNLKAFDFYKVIESFIKVEANLTREMIKHLERCEHRIMESLAWLSDSPLFDLIKQSKDGEGPDHLESACSLSLPLQSNHTAADMYLSPIRSPKKRTSTTRVNSAANTETQAASAFHTQKPLKSTSLSLFYKKVYRLAYLRLNTLCARLLSDHPELEHIIWTLFQHTLENEYELMKDRHLDQIMMCSMYGICKVKNIDLKFKIIVTAYKDLPHAAQETFKRVLIREEEFDSIIVFYNSVFMQRLKTNILQYASTRPPTLSPIPHIPRSPYKFSSSPLRIPGGNIYISPLKSPYKISEGLPTPTKMTPRSRILVSIGESFGTSEKFQKINQMVCNSDRVLKRSAEGGNPPKPLKKLRFDIEGSDEADGSKHLPAESKFQQKLAEMTSTRTRMQKQKLNDSMEISNKEEK
# B2: BOG-MBP chimeric protein (complete rBOG fused to the carboxy-terminal of maltose binding protein, pMAL-P2-BOG) (other, not shown: large carriers)
# chain: MVSPTKAVIVPGNGGGDVATHGWYGWVRKGLEQIPGFQCLAKNMPDPITARESIWLPFMETELHCDEKTIIIGHSSGAIAAMRYAETHQVYALILVSAYTSDLGDENERASGYFSRPWQWEKIKANCPHIIQFGSTDDPFLPWKEQQEVADSWTPNCTNSLTVVTFRTQSSMN
# notes: Any vector-encoded linker between MBP and BOG is not described; also called fusion protein BOG-MBP; chimeric BOG-MBP
# Experiments:
# [1] = target: maltose binding protein without BOG (UniProt P0AEX9 27-392 = MBP); assay: precipitation from whole cell lysates with amylose-purified protein
# [2] = target: B1; assay: precipitation of pRb from whole cell lysates by amylose-purified BOG-MBP
binding result [1],binding result [2],Binder
no binding,–,B1
–,binds,B2
